Measurements: patent US20220363757A1 (SYMPHOGEN A S, published 2022)

T1: mouse LAG-3 ECD (mouse, UniProt Q61790 24-442)
T1 sequence: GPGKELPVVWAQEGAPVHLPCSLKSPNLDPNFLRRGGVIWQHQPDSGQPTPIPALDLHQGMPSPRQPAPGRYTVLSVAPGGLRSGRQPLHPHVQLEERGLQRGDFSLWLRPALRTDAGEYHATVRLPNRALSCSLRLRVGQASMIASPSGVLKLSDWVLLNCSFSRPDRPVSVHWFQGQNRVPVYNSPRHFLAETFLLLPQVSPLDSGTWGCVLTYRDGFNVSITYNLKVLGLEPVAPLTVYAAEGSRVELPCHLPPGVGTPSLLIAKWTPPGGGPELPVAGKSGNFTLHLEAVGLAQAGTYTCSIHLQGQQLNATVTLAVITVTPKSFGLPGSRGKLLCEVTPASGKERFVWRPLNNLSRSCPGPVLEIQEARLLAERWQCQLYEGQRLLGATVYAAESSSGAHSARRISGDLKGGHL


Molecular target: T1, mouse LAG-3 ECD
Test: SPR, Fab over captured LAG-3 ECD
Description: Antigens were purified using standard procedures and captured onto an G-a-hu-IgG Fc SensEye® (Ssens BV, The Netherlands) for 15 minutes using a Continuous Flow Microspotter (CFM, Wasatch Microfluidics, Salt Lake City, US). After spotting, the SensEye® was positioned in the IBIS MX96 biosensor and remaining capture sites blocked. […] Fab association was performed for 15 minutes and antigen dissociation was performed for 15 minutes. The recorded binding responses were fitted to a simple Langmuir 1:1 binding model with Scrubber 2 software for calculation of the on-rate (kon or ka), off-rate (koff or kd) and affinity (KL) constants.

Binder | Kd [nM] | koff [s⁻¹] | kon [M⁻¹ s⁻¹] | binding result
Fab fragment of antibody 15011 (Fab, V domains shown, not shown: a dimerising Fc or GST, monomeric Fab made by GingisKHAN digestion of the IgG1) VH: EVQLLESGGGLVQPGGSLRLSCAASGFDFRSYAMMWVRQAPGKGLEWVGGINGEVGGSNTYYAPAVKGRATISRDNSKNTLYLQMNSLRAEDTAVYYCVKGAGACGICNDDIDAWGQGTLVTVSS VL: SYELTQDPAVSVALGQTVRITCSGAGSYAGSYYYGWHQQKPGQAPVTVIYDNDKRPSNIPDRFSGSSSGNTASLTITGAQAEDEADYYCGSTNDNDDGGLFGSGTKVTVLG | 33 | 0.0023 | 72000 | –
Fab fragment of antibody 15572 (Fab, V domains shown, not shown: a dimerising Fc or GST, monomeric Fab made by GingisKHAN digestion of the IgG1) VH: QLQLQESGPGLVKPSETLSLTCTVSGDSISSSSYYWGWIRQPPGKGLEWIGSIFYSGNTYYNPSLKSRVTISVDTSKNQFSLKLSSVTAADTAVYYCAREDDFLTDYYGAFDIWGQGTMVTVSS VL: not shown | – | – | – | no binding (tested: 1000 nM)
Fab fragment of antibody 15532 (Fab, V domains shown, not shown: a dimerising Fc or GST, monomeric Fab made by GingisKHAN digestion of the IgG1) VH: QVQLQQWGAGLLRPSETLSLTCAVYGESFSGYYWNWIRQPPGKGLEWIGEINHSGSTNYNPSLKSRVTISVDTSKTQFSLKLSSVTAADTAVYYCARGWDLLDWNDYWNEYWGQGTLVTVSS VL: EIVLTQSPATLSLSPGERATLSCRASQSVSSYLAWYQQKPGQAPRLLIYDASNRATGIPARFSGSGSGTDFTLTISSLEPEDFAVYYCQQRSNWPLTFGGGTKVEIKR | – | – | – | no binding (tested: 1000 nM)
Fab fragment of antibody 15431 (Fab, V domains shown, not shown: a dimerising Fc or GST, monomeric Fab made by GingisKHAN digestion of the IgG1) VH: QVQLQQSGPGLVKPSQTLSLTCAISGDSVSSNSAAWNWIRQSPSRGLEWLGRTYYRSKWYNDYAVSVKSRITINPDTSKNQFSLQLNSVTPEDTAVYYCARDDDWNDFDYWGQGTLVTVSS VL: EIVLTQSPATLSLSPGERATLSCRASQSVSSYLAWYQQKPGQAPRLLIYDASNRATGIPARFSGSGSGTDFTLTISSLEPEDFAVYYCQQRSNWPLTFGGGTKVEIKR | – | – | – | no binding (tested: 1000 nM)
